The values that follow come from patent US20230295310A1 (ABCELLERA BIOLOGICS, published 2023).

Numbering of substitutions follows the chain as printed.

This assay has as its target EGFR on HeLa cells (UniProt P00533 25-1210, limits assumed). Put plainly: cell-based or functional assay.

B1: GOMP001_bsAb_021 (bispecific antibody, human IgG1, kappa, L234A L235A)
heavy 1: QVQLVQSGAEVKKPGASVKVSCKASGYTFTSHWMHWVRKAPGQGLEWIGEFNPSNGRTNYNEEFKSKATMTVDTSTNTAYMELSSLRSEDTAVYYCASRDYDYDGRYFDYWGQGTLVTVSSASTKGPSVFPLAPSSKSTSGGTAALGCLVADYFPEPVTVSWNSGALTSGVHTFPAVLQSSGLYSLSSVVTVPSSSLGTQTYICNVNHKPSNTKVDEKVEPKSCDKTHTCPPCPAPEAAGGPSVFLFPPKPKDTLMISRTPEVTCVVVDVSHEDPEVKFNWYVDGVEVHNAKTKPREEQYNSTYRVVSVLTVLHQDWLNGKEYKCKVSNKALPAPIEKTISKAKGQPREPQVYTLPPSREEMTDNQVSLTCLVKGFYPSDIAVEWESNGQPENNYKTTPPVLMSDGSFFLASKLTVDKSRWQQGNVFSCSVMHEALHNHYTQKSLSLSPG
light 1: RIQMTQSPSSLSASVGDRVTITCSASSSVTYMYWYQDKPGKAPKLLIYDTSNLASGVPSRFSGSGSGTDYTFTISSLQPEDIATYYCQQWSSHIFTFGQGTKVEIKRTVAAPSVFIFPPSDKQLKSGTARVVCLLNNFYPREAKVQWKVDNALQSGNSQESVTEQDSKDSTYSLSSTLTLSKADYEKHKVYACEVTHQGLSSPVTKSFNRGEC
heavy 2: QMLLVESGGGVVQPGRSLTLSCAASGFTFRSYGMHWVRYAPGRGLEWVAIIWYDGSTEYYADRVKGRFTISRANSKNMLYLQMNSLRAEDTAVYYCAAFDYTNSFDIWGRGTMVTVSSASTKGPSVFPLAPSSKSTSGGTAALGCLVKDYFPEPVTVSWNSGALTSGVHTFPAVLQSSGLYSLSSVVTVPSSSLGTQTYICNVNHKPSNTKVDKKVEPKSCDKTHTCPPCPAPEAAGGPSVFLFPPKPKDTLMISRTPEVTCVVVDVSHEDPEVKFNWYVDGVEVHNAKTKPREEQYNSTYRVVSVLTVLHQDWLNGKEYKCKVSNKALPAPIEKTISKAKGQPRRPRVYTLPPSREEMTKNQVSLVCLVKGFYPSDIAVEWESNGQPENNYKTTPPVLDSDGSFFLYSVLTVDKSRWQQGNVFSCSVMHEALHNHYTQKSLSLSPG
light 2: DIVVTQTPLSSPVTLGQPASISCRSSQRFVHSDGNTYLSWLQRRPGDPPRLLIYKISNRISGVPDRFSGSGAGTDFKLKISRVEAEDVGIYYCMQATQFPYTFGQGTKLEIKRTVAAPSVFIFPPSDEQLKSGTASVVCLLNNFYPREAKVQWKVDNALQSGNSQESVTEQDSKDSTYSLSSTLTLSKADYEKHKVYACEVTHQGLSSPVTKSFNRGEC
B1 had a Max killing % of 25.4%.

B2: GOMP001_bsAb_022 (bispecific antibody, human IgG1, kappa, L234A L235A)
heavy 1: QMLLVESGGGVVQPGRSLTLSCAASGFTFRSYGMHWVRKAPGRGLEWVAIIWYDGSTEYYADEVKGRFTISRANSKNMLYLQMNSLRAEDTAVYYCAAFDYTNSFDIWGQGTMVTVSSASTKGPSVFPLAPSSKSTSGGTAALGCLVADYFPEPVTVSWNSGALTSGVHTFPAVLQSSGLYSLSSVVTVPSSSLGTQTYICNVNHKPSNTKVDEKVEPKSCDKTHTCPPCPAPEAAGGPSVFLFPPKPKDTLMISRTPEVTCVVVDVSHEDPEVKFNWYVDGVEVHNAKTKPREEQYNSTYRVVSVLTVLHQDWLNGKEYKCKVSNKALPAPIEKTISKAKGQPREPQVYTLPPSREEMTDNQVSLTCLVKGFYPSDIAVEWESNGQPENNYKTTPPVLMSDGSFFLASKLTVDKSRWQQGNVFSCSVMHEALHNHYTQKSLSLSPG
light 1: B1 light 2 with D1R, R43D, D47Q, E128K, S136R
heavy 2: QVQLVQSGAEVKKPGASVKVSCKASGYTFTSHWMHWVRYAPGQGLEWIGEFNPSNGRTNYNEKFKSKATMTVDTSTNTAYMELSSLRSEDTAVYYCASRDYDYDGRYFDYWGRGTLVTVSSASTKGPSVFPLAPSSKSTSGGTAALGCLVKDYFPEPVTVSWNSGALTSGVHTFPAVLQSSGLYSLSSVVTVPSSSLGTQTYICNVNHKPSNTKVDKKVEPKSCDKTHTCPPCPAPEAAGGPSVFLFPPKPKDTLMISRTPEVTCVVVDVSHEDPEVKFNWYVDGVEVHNAKTKPREEQYNSTYRVVSVLTVLHQDWLNGKEYKCKVSNKALPAPIEKTISKAKGQPRRPRVYTLPPSREEMTKNQVSLVCLVKGFYPSDIAVEWESNGQPENNYKTTPPVLDSDGSFFLYSVLTVDKSRWQQGNVFSCSVMHEALHNHYTQKSLSLSPG
light 2: B1 light 1 with R1D, D37R, K41D, K122E, R130S
With B2, the Max killing % worked out at 60.6% and the “X… HeLa EC50” value amounted to 0.478 nM.

B3: GOMP001_bsAb_024 (bispecific antibody, human IgG1, kappa, L234A L235A)
heavy 1: QGQLVESGGGVVQPGRSLRLSCEASGFTFRSYGMHWVRKPPGKGLEWVAIIWYDGGKKYYGDEVKGRFTISRDNPKNTLYLQMNSLRPEDTAVYYCMAYDYSNGFDIWGQGTMVTVSSASTKGPSVFPLAPSSKSTSGGTAALGCLVADYFPEPVTVSWNSGALTSGVHTFPAVLQSSGLYSLSSVVTVPSSSLGTQTYICNVNHKPSNTKVDEKVEPKSCDKTHTCPPCPAPEAAGGPSVFLFPPKPKDTLMISRTPEVTCVVVDVSHEDPEVKFNWYVDGVEVHNAKTKPREEQYNSTYRVVSVLTVLHQDWLNGKEYKCKVSNKALPAPIEKTISKAKGQPREPQVYTLPPSREEMTDNQVSLTCLVKGFYPSDIAVEWESNGQPENNYKTTPPVLMSDGSFFLASKLTVDKSRWQQGNVFSCSVMHEALHNHYTQKSLSLSPG
light 1: RIVMTQTPLSSPVTLGQPASISCRSSQSFVHSDGSTYLSWLQDRPGQPPRLLIYKISNRFSGVPDRFSGRGAGTDFTLKISRVEAEDVGIYYCMQNTQFPYTFGQGTKLEIKRTVAAPSVFIFPPSDKQLKSGTARVVCLLNNFYPREAKVQWKVDNALQSGNSQESVTEQDSKDSTYSLSSTLTLSKADYEKHKVYACEVTHQGLSSPVTKSFNRGEC
heavy 2: B2 heavy 2
light 2: B1 light 1 with R1D, D37R, K41D, K122E, R130S
Regarding B3, the Max killing % amounted to 72.5% and the “X… HeLa EC50” value came to 0.895 nM.

B4: GOMP001_bsAb_023 (bispecific antibody, human IgG1, kappa, L234A L235A)
heavy 1: B1 heavy 1
light 1: B1 light 1
heavy 2: QGQLVESGGGVVQPGRSLRLSCEASGFTFRSYGMHWVRYPPGKGLEWVAIIWYDGGKKYYGDRVKGRFTISRDNPKNTLYLQMNSLRPEDTAVYYCMAYDYSNGFDIWGRGTMVTVSSASTKGPSVFPLAPSSKSTSGGTAALGCLVKDYFPEPVTVSWNSGALTSGVHTFPAVLQSSGLYSLSSVVTVPSSSLGTQTYICNVNHKPSNTKVDKKVEPKSCDKTHTCPPCPAPEAAGGPSVFLFPPKPKDTLMISRTPEVTCVVVDVSHEDPEVKFNWYVDGVEVHNAKTKPREEQYNSTYRVVSVLTVLHQDWLNGKEYKCKVSNKALPAPIEKTISKAKGQPRRPRVYTLPPSREEMTKNQVSLVCLVKGFYPSDIAVEWESNGQPENNYKTTPPVLDSDGSFFLYSVLTVDKSRWQQGNVFSCSVMHEALHNHYTQKSLSLSPG
light 2: B3 light 1 with R1D, D43R, Q47D, K128E, R136S
On to B4, for which the Max killing % was determined as 27.5%.
